These results are taken from the supplement of paper PMC7877785.

A short description of this data set: self-splicing fitness, log relative to wild type (ln ratio); higher = more splicing; Tetrahymena group I intron in knt gene, E. coli kanamycin selection, DiMSum; sequences stand for … in CUCUCU…GGAGGGAAAAGUUAUCAGGCAUGCACCUGGUAGCUAGUCUUUAAACCAAUAGAUUGCAUCGGUUUAAAAGGCAAGACCGUCAAAUUGCGGGAAAGGGGUCAACAGCCGUUCAGUACCAAGUCUCAGGGGAAACUUUGAGAUGGCCUUGCAAAGGGUAUGGUAAUAAGCUGACGGACAUGGUCCUAACCACGCAGCCAAGUCCUAAGUCAACAGAUCUUCUGUUGAUAUGGAUGCAGUUCACAGACUAAAUGUCGGUCGGGGAAGAUGUAUUCUUCUCAUAAGAUAUAGUCGGACCUCUCCUUAAUGGGAGCUAGCGGAUGAAGUGAUGCAACACUGGAGCCGCUGGGAACUAAUUUGUAUGCGAAAGUAUAUUGAUUAGUUUUGGAGUACUCGUGGUCG
The gist of the method: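 The eight P1ex-region nucleotides of an intron in the knt kanamycin-resistance gene on pET-22b(+) were all randomised and the library put into E. coli BL21(DE3). Six replicate transformations were grown overnight at 37°C or 30°C on LB agar with or without 25 μg/mL kanamycin, together with 100 μg/mL carbenicillin, 50 μM IPTG and 0.2% rhamnose. Colonies were pooled and amplicon-sequenced on an Illumina HiSeq 2500. Fitness from DiMSum is the error-weighted combination of wild-type-normalised replicate fold changes, kanamycin over none.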

± gives the uncertainty stated by the source.

GUUCAGCAAUAUUACGAUUU: the “self-splicing fitness (ln)” value by setting is: (30 °C) -0.241 ± 0.078; (37 °C) 0.331 ± 0.087. Take CCCUAGCAAUAUUACGGACG: the “self-splicing fitness (ln)” value was -2.32 ± 0.097 (30 °C) and -1.15 ± 0.11 (37 °C). Consider GUAGAGCAAUAUUACGCGCC, for which the “self-splicing fitness (ln)” value is -3.54 ± 0.29 (30 °C) and -1.67 ± 0.38 (37 °C). On to GUGGAGCAAUAUUACGCACA, for which the “self-splicing fitness (ln)” value (30 °C) was -0.729 ± 0.22 and the “self-splicing fitness (ln)” value (37 °C) is -0.814 ± 0.33. Regarding CUAGAGCAAUAUUACGUUUA, the “self-splicing fitness (ln)” value was -4.4 ± 0.24 (30 °C) and -0.83 ± 0.17 (37 °C).

ACUCAGCAAUAUUACGGGGG: the “self-splicing fitness (ln)” value is -1.68 ± 0.11 (30 °C) and -1.45 ± 0.14 (37 °C). As for GCGCAGCAAUAUUACGUGGA, the “self-splicing fitness (ln)” value (30 °C) is -1.48 ± 0.098 and the “self-splicing fitness (ln)” value (37 °C) was -0.745 ± 0.098.

Turning to GUUUAGCAAUAUUACGGGAA, the “self-splicing fitness (ln)” value by setting is: (30 °C) -2.96 ± 0.23; (37 °C) -2.04 ± 0.19. With UAUUAGCAAUAUUACGGGAU, the “self-splicing fitness (ln)” value (37 °C) is -2.61 ± 0.41. Regarding AGAGAGCAAUAUUACGAACA, the “self-splicing fitness (ln)” value (30 °C) was -2.8 ± 0.36 and the “self-splicing fitness (ln)” value (37 °C) is -2.84 ± 0.31. For the sequence AGGCAGCAAUAUUACGUUUA, the “self-splicing fitness (ln)” value is, setting by setting: (30 °C) -1.33 ± 0.072; (37 °C) -0.496 ± 0.08. On to UAUUAGCAAUAUUACGGGUA, for which the “self-splicing fitness (ln)” value is -0.742 ± 0.12 (30 °C) and -0.599 ± 0.11 (37 °C). As for AUGCAGCAAUAUUACGAUUC, the “self-splicing fitness (ln)” value was -2.72 ± 0.14 (30 °C) and -0.939 ± 0.17 (37 °C). For ACUAAGCAAUAUUACGAACC the same measures were -0.514 ± 0.16 and -1.24 ± 0.24. For GCACAGCAAUAUUACGUCUU the same measures were -0.723 ± 0.053 and 0.267 ± 0.064. Regarding GACGAGCAAUAUUACGAAAU, for the setting “30 °C”, the “self-splicing fitness (ln)” value was -2.5 ± 0.23. CCGAAGCAAUAUUACGGGGC: the “self-splicing fitness (ln)” value (30 °C) is -3.54 ± 0.24 and the “self-splicing fitness (ln)” value (37 °C) was -1.64 ± 0.24. For AGCCAGCAAUAUUACGAACC the same measures were -0.758 ± 0.12 and -0.0185 ± 0.11. Turning to CAAGAGCAAUAUUACGCAGA, the “self-splicing fitness (ln)” value runs as follows: (30 °C) -3.45 ± 0.19; (37 °C) -2.12 ± 0.16.

Regarding CCCGAGCAAUAUUACGUUUA, the “self-splicing fitness (ln)” value by setting is: (30 °C) -3.42 ± 0.17; (37 °C) -2.75 ± 0.16.

Take GACGAGCAAUAUUACGUCAG: where the note is “37 °C”, the “self-splicing fitness (ln)” value was -1.66 ± 0.23. In the case of UGGUAGCAAUAUUACGGGAG, the “self-splicing fitness (ln)” value (30 °C) was -3.82 ± 0.43 and the “self-splicing fitness (ln)” value (37 °C) is -1.6 ± 0.13. Turning to AGCGAGCAAUAUUACGUGGG, the “self-splicing fitness (ln)” value is -2.35 ± 0.27 (30 °C) and -3.19 ± 0.35 (37 °C). On to CCCAAGCAAUAUUACGUUUC, for which the “self-splicing fitness (ln)” value is, setting by setting: (30 °C) -3.63 ± 0.16; (37 °C) -2.76 ± 0.15. Take AACUAGCAAUAUUACGGUCC: the “self-splicing fitness (ln)” value is -0.628 ± 0.13 (30 °C) and -0.637 ± 0.15 (37 °C). As to ACGUAGCAAUAUUACGACAC, the “self-splicing fitness (ln)” value (30 °C) was -1.46 ± 0.21 and the “self-splicing fitness (ln)” value (37 °C) was -0.658 ± 0.18. For AUGCAGCAAUAUUACGGUAC the same measures were -2.35 ± 0.095 and -1.52 ± 0.14. Consider UACAAGCAAUAUUACGAUCA, for which the “self-splicing fitness (ln)” value is, setting by setting: (30 °C) -0.336 ± 0.079; (37 °C) 0.387 ± 0.11. ACAGAGCAAUAUUACGCUUG: the “self-splicing fitness (ln)” value was -1.62 ± 0.12 (30 °C) and -1.63 ± 0.17 (37 °C). Consider CAGAAGCAAUAUUACGCAUA, for which the “self-splicing fitness (ln)” value reads like this: (30 °C) -3.68 ± 0.24; (37 °C) -2.02 ± 0.18. Regarding CAGUAGCAAUAUUACGGCUG, the “self-splicing fitness (ln)” value is -3.85 ± 0.47 (30 °C) and -2.37 ± 0.34 (37 °C).

In the case of UCGGAGCAAUAUUACGAACA, the “self-splicing fitness (ln)” value runs as follows: (30 °C) -2.3 ± 0.21; (37 °C) -1.25 ± 0.21. On to AUGAAGCAAUAUUACGGGCA, for which the “self-splicing fitness (ln)” value is, setting by setting: (30 °C) 0.212 ± 0.079; (37 °C) 0.459 ± 0.09.

Consider GCAGAGCAAUAUUACGUGGC, for which, under “37 °C”, the “self-splicing fitness (ln)” value was -2.09 ± 0.32. As for CUGUAGCAAUAUUACGAGGG, the “self-splicing fitness (ln)” value by setting is: (30 °C) -3.5 ± 0.49; (37 °C) -1.14 ± 0.34. Consider ACCUAGCAAUAUUACGGAAC, for which the “self-splicing fitness (ln)” value (30 °C) was -3.04 ± 0.24.

As for ACUCAGCAAUAUUACGGGUG, the “self-splicing fitness (ln)” value is, setting by setting: (30 °C) -1.42 ± 0.063; (37 °C) -0.563 ± 0.077. Consider CUUCAGCAAUAUUACGGGUA, for which the “self-splicing fitness (ln)” value is, setting by setting: (30 °C) -3.12 ± 0.22; (37 °C) -3.74 ± 0.28. As for AAAUAGCAAUAUUACGACUG, the “self-splicing fitness (ln)” value is -0.98 ± 0.12 (30 °C) and -0.722 ± 0.18 (37 °C).
